Legend:
rNav1.2a = test: Two-electrode voltage-clamp, rNav1.2a expressed in Xenopus oocytes; type: cell-based, rat; settings: 100 nM toxin
Description: The DNA sequence of rat (r)Nav1.2a (provided by A. Goldin, University of California, Irvine, Irvine, Calif.), rKv2.1 (provided by K. J. Swartz, National Institutes of Health), and the rNav1.2a/Kv2.1 VSD II or IV chimera was confirmed by automated DNA sequencing, and cRNA was synthesized using T7 polymerase (mMessage mMachine™ kit; Life Technologies) after linearizing the DNA with appropriate restriction enzymes. Channels were expressed in Xenopus oocytes (obtained from Xenopus 1) and studied after a 1-d incubation after cRNA injection (incubated at 17° C. in 96 mM NaCl, 2 mM KCl, 5 mM HEPES, 1 mM MgCl2, 1.8 mM CaCl2, and 50 μg/ml gentamycin, pH 7.6 with NaOH) using two-electrode voltage-clamp recording techniques (OC-725C; Warner Instruments) with a 150-μl recording chamber. Data were filtered at 4 kHz and digitized at 20 kHz using pClamp™ 10 software (Molecular Devices). Microelectrode resistances were 0.5-1.5 MΩ when filled with 3 M KCl. For Kv chimera channel experiments, the external recording solution contained (mM): 50 KCl, 50 NaCl, 5 HEPES, 1 MgCl2, and 0.3 CaCl2, pH 7.6 with NaOH. For rNav1.2a experiments, the external recording solution contained (mM): 100 NaCl, 5 HEPES, 1 MgCl2, and 1.8 CaCl2, pH 7.6 with NaOH. All experiments were performed at ˜22° C. Leak and background conductances, identified by blocking the channel with agitoxin-2 (provided by K. J. Swartz), have been subtracted for all of the Kv channel currents shown. […] Voltage-activation relationships were obtained by measuring tail currents for Kv channels or steady-state currents and calculating conductance for Nav channels, and a single Boltzmann function was fitted to the data according to I/Imax=[1c+cexp(−zF(Vc−cV1/2)/RT)]^−1, where I/Imax is the normalized tail-current amplitude, z is the equivalent charge, V1/2 is the half-activation voltage, F is Faraday's constant, R is the gas constant, and T is temperature in kelvin. For all channels, voltage-activation relationships were recorded in the absence and presence of toxin. The ratio of currents (I/I0) recorded in the presence (I) and absence (I0) of toxin was calculated for voltages typically ranging from −140 to 10 cmV, depending on the construct. […] The apparent equilibrium dissociation constant (apparent KD) for Kv channels was calculated according to KD=((1/(1c−cFu^1/4))c−c1)[toxin], assuming four independent toxin-binding sites per channel. Results are given as mean±SEM unless noted otherwise. Offline data analysis was performed using Clampfit 10™ (Molecular Devices), Origin 8.0™ (OriginLab), and Excel™ (Microsoft). All chemicals were obtained from Sigma-Aldrich.
Representative sodium currents were elicited by a 50-ms depolarization to a suitable membrane voltage (−20 to −15 mV) before (black) and after toxin addition (green) from a holding voltage of −90 mV. […] For each toxin, K^+ currents were elicited by a 300-ms depolarization to 0 mV from a holding voltage of −90 mV (tail voltage was −60 mV). […] For each toxin, K^+ currents (top) were elicited by a 300-ms depolarization near the foot of the voltage-activation curve (bottom) from a holding voltage of −90 mV.

[1] = test system: rNav1.2a/Kv2.1 VSD IV chimera containing the R1629A/L1630A substitutions; type: cell-based, rat
Description: The DNA sequence of rat (r)Nav1.2a (provided by A. Goldin, University of California, Irvine, Irvine, Calif.), rKv2.1 (provided by K. J. Swartz, National Institutes of Health), and the rNav1.2a/Kv2.1 VSD II or IV chimera was confirmed by automated DNA sequencing, and cRNA was synthesized using T7 polymerase (mMessage mMachine™ kit; Life Technologies) after linearizing the DNA with appropriate restriction enzymes. Channels were expressed in Xenopus oocytes (obtained from Xenopus 1) and studied after a 1-d incubation after cRNA injection (incubated at 17° C. in 96 mM NaCl, 2 mM KCl, 5 mM HEPES, 1 mM MgCl2, 1.8 mM CaCl2, and 50 μg/ml gentamycin, pH 7.6 with NaOH) using two-electrode voltage-clamp recording techniques (OC-725C; Warner Instruments) with a 150-μl recording chamber. Data were filtered at 4 kHz and digitized at 20 kHz using pClamp™ 10 software (Molecular Devices). […] For all channels, voltage-activation relationships were recorded in the absence and presence of toxin. The ratio of currents (I/I0) recorded in the presence (I) and absence (I0) of toxin was calculated for voltages typically ranging from −140 to 10 cmV, depending on the construct. […] The apparent equilibrium dissociation constant (apparent KD) for Kv channels was calculated according to KD=((1/(1c−cFu^1/4))c−c1)[toxin], assuming four independent toxin-binding sites per channel. […]

[2] = target: rNav1.2a/Kv2.1 VSD IV paddle chimera; settings: WT chimera; read-out: apparent KD, WT chimera (previously shown); cited from earlier work
[3] = target: rNav1.2a/Kv2.1 VSD IV chimera R1629A; settings: R1629A substitution; read-out: apparent KD; cited from earlier work
[4] = target: rNav1.2a/Kv2.1 VSD IV chimera L1630A; settings: L1630A substitution; read-out: apparent KD; cited from earlier work
Sequence of rNav1.2a/Kv2.1 VSD IV chimera L1630A (P04775 1605-1636 L1630A limits assumed): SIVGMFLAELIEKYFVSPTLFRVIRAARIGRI

Sequence of rNav1.2a/Kv2.1 VSD IV chimera containing the R1629A/L1630A substitutions (P04775 1605-1636 R1629A/L1630A limits assumed): as the sequence (P04775 1605-1636 L1630A limits assumed) above, with R25A counted along it
Sequence of rNav1.2a/Kv2.1 VSD IV paddle chimera (P04775 1605-1636 limits assumed, stated change not applied): as the sequence (P04775 1605-1636 L1630A limits assumed) above, with A26L counted along it
Sequence of rNav1.2a/Kv2.1 VSD IV chimera R1629A (P04775 1605-1636 R1629A limits assumed): as the sequence (P04775 1605-1636 L1630A limits assumed) above, with R25A, A26L counted along it

B1: AaHII: Nav channel-selective α-scorpion toxin from Androctonus australis hector; model toxin (protein)
chain: VKDGYIVDDVNCTYFCGRNAYCNEECTKLKGESGYCQWASPYGNACYCYKLPDHVRTKGPGRCH
For B1, the “effect on rNav1.2a fast inactivation” value (rNav1.2a; 50-ms test pulse) was “inhibits rNav1.2a fast inactivation”, the “fast inactivation time constant (τ) after toxin application” value (rNav1.2a; single-exponential fit of current decay, n=3, mean±SEM) was 4.9±0.1 and the “inhibition of the double mutant channel” value ([1]; 100 nM toxin) was “strongly inhibits”. The Kd ([1]; read-out: apparent KD) was 193 ± 42 nM, the Kd [2] was 1900 nM and the Kd [3] was 235 ± 24 nM. For the same molecule, the Kd [4] was 205 ± 23 nM.

— US10429300B2, “Surface plasmon resonance approach to monitor protein-ligand interactions” (The Johns Hopkins University, priority 2015, dated 2019)
